Changes are numbered by the printed parent chain. Numbers in names are those of the source.
T1: TNFR1 (Homo sapiens, UniProt P19438)
T1 chain: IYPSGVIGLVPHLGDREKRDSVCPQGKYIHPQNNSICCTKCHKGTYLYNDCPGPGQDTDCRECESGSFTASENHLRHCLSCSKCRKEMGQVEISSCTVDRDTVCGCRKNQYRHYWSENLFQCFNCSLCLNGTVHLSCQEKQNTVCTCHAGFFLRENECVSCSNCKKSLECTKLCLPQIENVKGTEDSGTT

B1: L6N (designed binder)
chain: MTLQENLREEALRRAEAEAFRYALELLAEKFPEQKEYLLDLAEEIESQIRSLSGVDVEDVRKFLDKEWAWVKELLAEHPAELAEVEAARAARLAELRAEVEAKVAA
B2: L52A (designed binder)
chain: B1 chain with N6L, L52A
B3: E81W (designed binder)
chain: B1 chain with N6L, E81W
B4: E44N (designed binder)
chain: B1 chain with N6L, E44N
B5: V71I (designed binder)
chain: B1 chain with N6L, V71I
B6: G54P (designed binder)
chain: B1 chain with N6L, G54P
B7: D59E (designed binder)
chain: B1 chain with N6L, D59E
B8: L74P (designed binder)
chain: B1 chain with N6L, L74P
B9: E84F (designed binder)
chain: B1 chain with N6L, E84F
B10: E16P (designed binder)
chain: B1 chain with N6L, E16P
B11: R8P (designed binder)
chain: B1 chain with N6L, R8P
B12: E101K (designed binder)
chain: B1 chain with N6L, E101K
B13: E67V (designed binder)
chain: B1 chain with N6L, E67V
B14: L64G (designed binder)
chain: B1 chain with N6L, L64G
B15: L74N (designed binder)
chain: B1 chain with N6L, L74N
B16: W68K (designed binder)
chain: B1 chain with N6L, W68K
B17: D65A (designed binder)
chain: B1 chain with N6L, D65A
B18: A69E (designed binder)
chain: B1 chain with N6L, A69E
B19: A94Y (designed binder)
chain: B1 chain with N6L, A94Y
B20: S53I (designed binder)
chain: B1 chain with N6L, S53I
B21: A105D (designed binder)
chain: B1 chain with N6L, A105D
B22: K103F (designed binder)
chain: B1 chain with N6L, K103F
B23: H78S (designed binder)
chain: B1 chain with N6L, H78S
B24: A42Q (designed binder)
chain: B1 chain with N6L, A42Q
B25: E16Y (designed binder)
chain: B1 chain with N6L, E16Y
B26: V55Y (designed binder)
chain: B1 chain with N6L, V55Y
B27: V60Y (designed binder)
chain: B1 chain with N6L, V60Y
B28: E25A (designed binder)
chain: B1 chain with N6L, E25A
B29: R89E (designed binder)
chain: B1 chain with N6L, R89E
B30: E36P (designed binder)
chain: B1 chain with N6L, E36P
B31: D59T (designed binder)
chain: B1 chain with N6L, D59T
B32: R89Q (designed binder)
chain: B1 chain with N6L, R89Q
B33: K103W (designed binder)
chain: B1 chain with N6L, K103W
B34: S53Y (designed binder)
chain: B1 chain with N6L, S53Y
B35: L39R (designed binder)
chain: B1 chain with N6L, L39R
B36: A94V (designed binder)
chain: B1 chain with N6L, A94V
B37: T2D (designed binder)
chain: B1 chain with T2D, N6L
B38: A87K (designed binder)
chain: B1 chain with N6L, A87K
B39: E44A (designed binder)
chain: B1 chain with N6L, E44A
B40: L24P (designed binder)
chain: B1 chain with N6L, L24P
B41: H78P (designed binder)
chain: B1 chain with N6L, H78P
B42: E36G (designed binder)
chain: B1 chain with N6L, E36G
B43: L75K (designed binder)
chain: B1 chain with N6L, L75K
B44: L74D (designed binder)
chain: B1 chain with N6L, L74D
B45: R89N (designed binder)
chain: B1 chain with N6L, R89N
B46: R8C (designed binder)
chain: B1 chain with N6L, R8C
B47: E36N (designed binder)
chain: B1 chain with N6L, E36N
B48: L24F (designed binder)
chain: B1 chain with N6L, L24F
B49: L3M (designed binder)
chain: B1 chain with L3M, N6L
B50: A106Y (designed binder)
chain: B1 chain with N6L, A106Y
B51: L38P (designed binder)
chain: B1 chain with N6L, L38P
B52: R8Q (designed binder)
chain: B1 chain with N6L, R8Q
B53: A28N (designed binder)
chain: B1 chain with N6L, A28N
B54: T2Q (designed binder)
chain: B1 chain with T2Q, N6L
B55: L74C (designed binder)
chain: B1 chain with N6L, L74C
B56: R61F (designed binder)
chain: B1 chain with N6L, R61F
B57: Q48S (designed binder)
chain: B1 chain with N6L, Q48S
B58: V100I (designed binder)
chain: B1 chain with N6L, V100I
B59: S53H (designed binder)
chain: B1 chain with N6L, S53H

Biological target: T1, TNFR1
Assay: yeast display SC50

| apparent Kd (screen) | Binder |
| --- | --- |
| 22.2 nM | B1 |
| 0.446 nM | B2 |
| 0.539 nM | B3 |
| 24.4 nM | B4 |
| 0.539 nM | B5 |
| 12.5 nM | B6 |
| 0.539 nM | B7 |
| 13.8 nM | B8 |
| 0.593 nM | B9 |
| 9.41 nM | B10 |
| 10.4 nM | B11 |
| 0.653 nM | B12 |
| 20.2 nM | B13 |
| 1.69 nM | B14 |
| 1.27 nM | B15 |
| 12.5 nM | B16 |
| 0.653 nM | B17 |
| 0.956 nM | B18 |
| 0.593 nM | B19 |
| 2.25 nM | B20 |

| apparent Kd (screen) | Binder |
| --- | --- |
| 0.718 nM | B21 |
| 0.869 nM | B22 |
| 0.79 nM | B23 |
| 2.05 nM | B24 |
| 0.446 nM | B25 |
| 0.956 nM | B26 |
| 0.539 nM | B27 |
| 0.405 nM | B28 |
| 0.956 nM | B29 |
| 0.49 nM | B30 |
| 0.446 nM | B31 |
| 0.593 nM | B32 |
| 0.718 nM | B33 |
| 6.43 nM | B34 |
| 1.4 nM | B35 |
| 0.539 nM | B36 |
| 1.54 nM | B37 |
| 0.49 nM | B38 |
| 7.78 nM | B39 |
| 26.9 nM | B40 |

| apparent Kd (screen) | Binder |
| --- | --- |
| 1.69 nM | B41 |
| 0.718 nM | B42 |
| 0.593 nM | B43 |
| 3 nM | B44 |
| 1.05 nM | B45 |
| 0.593 nM | B46 |
| 1.27 nM | B47 |
| 0.653 nM | B48 |
| 2.73 nM | B49 |
| 0.79 nM | B50 |
| 22.2 nM | B51 |
| 0.653 nM | B52 |
| 12.5 nM | B53 |
| 1.27 nM | B54 |
| 1.4 nM | B55 |
| 1.05 nM | B56 |
| 0.593 nM | B57 |
| 0.653 nM | B58 |
| 0.653 nM | B59 |

Source: paper PMC12416549 (2024)
